Data: the supplement of paper PMC7125110
± gives the standard error. For some of these results: This sample holds only a part of the variants without activity.

B1: glmS ribozyme (parent)
chain: AUAAAAGCGCCAGAACUACAGAAAUGUAGUUGACGAGGAGGAGGUUUAUCGAAUUUUCGGCGGAUGCCUCCAAA

Legend:
Conditions in all cases: with glucosamine-6-phosphate
glucosamine-6-phosphate [1] = variants of: B1; assay: kcat; higher = faster cleavage; RNA array
Summary of the method: (§1)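 Glucosamine-6-phosphate in HEPES/KCl/Mg(OAc)2 buffer, at 40 μM to 10 mM, was flowed over barcoded ribozyme variants transcribed in situ by E. coli RNA polymerase on sequenced MiSeq chips. Tracking was through a hybridised Cy3 probe at 37 °C. kobs, kcat and KM came from exponential decay fits and weighted Michaelis–Menten fits of normalised per-tile medians.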

glucosamine-6-phosphate [2] = variants of: B1; assay: self-cleavage kobs at 2500 uM GlcN6P; higher = faster cleavage; RNA array
Summary of the method: as §1

glucosamine-6-phosphate [3] = variants of: B1; assay: self-cleavage kobs at 10000 uM GlcN6P; higher = faster cleavage; RNA array
Summary of the method: as §1

glucosamine-6-phosphate [4] = variants of: B1; assay: KM; higher = weaker cofactor use; RNA array
Summary of the method: as §1

glucosamine-6-phosphate [5] = variants of: B1; assay: self-cleavage kobs at 160 uM GlcN6P; higher = faster cleavage; RNA array
Summary of the method: as §1

glucosamine-6-phosphate [6] = variants of: B1; assay: self-cleavage kobs at 640 uM GlcN6P; higher = faster cleavage; RNA array
Summary of the method: as §1

glucosamine-6-phosphate [7] = variants of: B1; assay: self-cleavage kobs at 40 uM GlcN6P; higher = faster cleavage; RNA array
Summary of the method: as §1

Variant	kcat (glucosamine-6-phosphate [1]) [s⁻¹]	self-cleavage kobs at 2500 uM GlcN6P (glucosamine-6-phosphate [2]) [s⁻¹]	self-cleavage kobs at 10000 uM GlcN6P (glucosamine-6-phosphate [3]) [s⁻¹]	KM (glucosamine-6-phosphate [4]) [µM]	self-cleavage kobs at 160 uM GlcN6P (glucosamine-6-phosphate [5]) [s⁻¹]	self-cleavage kobs at 640 uM GlcN6P (glucosamine-6-phosphate [6]) [s⁻¹]	self-cleavage kobs at 40 uM GlcN6P (glucosamine-6-phosphate [7]) [s⁻¹]
A12G C68G	3.14e-05 ± 6.3e-06	4.35e-05 ± 1.8e-05	–	–	–	–	–
A12G C68A	2.58e-05 ± 7.3e-06	3.36e-05 ± 9e-06	1.95e-05 ± 7.6e-06	–	–	–	–
C11U A14U	0.00134 ± 0.00035	0.00104 ± 0.00013	0.000984 ± 0.00014	2130 ± 810	9.95e-05 ± 1.2e-05	0.000266 ± 3.5e-05	–
C11U U55G C70G	9.32e-05 ± 8.6e-06	–	8.94e-05 ± 1.7e-05	–	–	7.75e-05 ± 2.5e-05	–
C11U U31C A52U	< 1e-05	–	–	–	–	–	–
A12G G32U C70U	0.00103 ± 0.00043	0.000425 ± 9e-05	0.00121 ± 0.00019	–	0.000103 ± 1.9e-05	0.000285 ± 6.9e-05	–
C10A A12C U56A	0.000168 ± 4.1e-05	0.000306 ± 0.00011	0.00015 ± 2.7e-05	–	–	7.12e-05 ± 3e-05	–
A6U U30C	< 1e-05	< 1e-05	–	–	–	< 1e-05	–
A6U C50G A52U C61G C68U	3.87e-05 ± 1.1e-05	–	4.51e-05 ± 1.6e-05	–	–	–	–
C10G U49C	< 1e-05	< 1e-05	< 1e-05	–	< 1e-05	–	< 1e-05
C10G U49A	1.12e-05 ± 2.4e-06	–	–	–	–	< 1e-05	< 1e-05
A12G G40U	0.000365 ± 1.8e-05	0.000148 ± 1.3e-05	0.000265 ± 1.9e-05	3740 ± 350	–	5.37e-05 ± 6.7e-06	–
C11U G37C	1.18e-05 ± 3.2e-06	–	–	–	–	–	–
A12G C67U	0.000655 ± 3.4e-05	0.000297 ± 5.2e-05	0.000475 ± 4.3e-05	3650 ± 310	–	9.59e-05 ± 9.7e-06	–
C10U G60A	1.02e-05 ± 1.8e-06	–	–	–	–	–	< 1e-05
C10U A12C	5.93e-05 ± 3.7e-06	2.54e-05 ± 8e-06	4.39e-05 ± 8.1e-06	3450 ± 580	–	–	–
C11G U56G	1.32e-05 ± 5.5e-06	–	–	–	–	< 1e-05	< 1e-05
C10U A52G	< 1e-05	–	–	–	–	–	–
A12G A15C	0.000514 ± 0.00013	7.79e-05 ± 1e-05	0.000205 ± 2.2e-05	–	–	–	–
A12U C58A	0.00172 ± 0.00051	0.000149 ± 2.6e-05	0.00051 ± 6.1e-05	–	–	5.11e-05 ± 1.2e-05	–

Variant	kcat (glucosamine-6-phosphate [1]) [s⁻¹]	self-cleavage kobs at 2500 uM GlcN6P (glucosamine-6-phosphate [2]) [s⁻¹]	self-cleavage kobs at 10000 uM GlcN6P (glucosamine-6-phosphate [3]) [s⁻¹]	KM (glucosamine-6-phosphate [4]) [µM]	self-cleavage kobs at 160 uM GlcN6P (glucosamine-6-phosphate [5]) [s⁻¹]	self-cleavage kobs at 640 uM GlcN6P (glucosamine-6-phosphate [6]) [s⁻¹]	self-cleavage kobs at 40 uM GlcN6P (glucosamine-6-phosphate [7]) [s⁻¹]
A6U G43U	< 1e-05	–	–	6890 ± 1100	< 1e-05	< 1e-05	< 1e-05
A12G C71A	0.000639 ± 4.4e-05	0.000215 ± 3.9e-05	0.00043 ± 5.9e-05	4880 ± 500	–	7.45e-05 ± 1e-05	–
A12G U30G	8.75e-05 ± 7.1e-06	5.48e-05 ± 8.9e-06	7.28e-05 ± 7.5e-06	1830 ± 510	–	–	< 1e-05
C11G A39U	< 1e-05	< 1e-05	–	–	< 1e-05	–	–
C11U C34U G63U C70G	2.22e-05 ± 4.3e-06	–	–	–	–	–	–
A6U C58G	< 1e-05	–	< 1e-05	–	–	–	< 1e-05
C11A C67G	5.42e-05 ± 1.1e-05	3.8e-05 ± 1e-05	5.65e-05 ± 8.7e-06	–	3.16e-05 ± 1.1e-05	8.75e-05 ± 1.5e-05	–
G13A U30G	0.000441 ± 4.8e-05	0.000144 ± 3.3e-05	0.000271 ± 3.9e-05	6050 ± 1100	–	3.9e-05 ± 1e-05	–
A12C U65C	0.00043 ± 7.3e-05	0.000328 ± 8.4e-05	0.000343 ± 6.2e-05	1950 ± 620	–	0.000102 ± 1.9e-05	–
A12C U49G	0.000332 ± 1.7e-05	0.000216 ± 9.7e-05	0.000282 ± 4e-05	1730 ± 210	–	8.81e-05 ± 2e-05	–
C11U U56C	0.000248 ± 5e-05	0.000176 ± 2.3e-05	0.000188 ± 2.3e-05	2260 ± 1000	–	4.51e-05 ± 9.7e-06	–
C11U U56A	0.00124 ± 0.00023	0.000621 ± 7.2e-05	0.00125 ± 0.00016	1910 ± 580	0.000103 ± 1.4e-05	0.000294 ± 4.5e-05	3.72e-05 ± 1e-05
G7A U69A	1.56e-05 ± 3.6e-06	–	–	–	–	–	–
A12G G13U	9.52e-05 ± 1e-06	6.89e-05 ± 1.1e-05	8.62e-05 ± 7.6e-06	1020 ± 43	–	3.63e-05 ± 8.6e-06	–
A12G U31A G32U	6.44e-05 ± 1.1e-06	–	4.08e-05 ± 1.1e-05	5790 ± 240	–	–	–
G7A G37C U47A	1.02e-05 ± 2.4e-06	–	–	–	< 1e-05	–	–
A12U U31C U47G	0.00222 ± 0.00076	0.000645 ± 0.00015	0.00156 ± 0.00026	5110 ± 2400	8.69e-05 ± 1.9e-05	0.000212 ± 4.5e-05	4.15e-05 ± 1.7e-05
C10U U47G	< 1e-05	–	–	–	< 1e-05	–	–
A12C G66U C70U	0.00136 ± 0.00036	0.00128 ± 0.00028	0.000992 ± 0.00028	1190 ± 570	–	0.000496 ± 0.00012	3.71e-05 ± 1.5e-05
